Positions count from the first letter of the chain named. In names and notes the source's numbering stands.
B1: N-terminal hexahistidine tagged nosiheptide resistance methyltransferase (His-NHR) (enzyme, Streptomyces actuosus, UniProt P52391 1-274, looked up)
chain: MTEPAIITNASDPAVQRIIDVTKHSRASIKTTLIEDTEPLMECIRAGVQFIEVYGSSGTPLDPALLDLCRQREIPVRLIDVSIVNQLFKAERKAKVFGIARVPRPARLADIAERGGDVVVLDGVKIVGNIGAIVRTSLALGAAGIVLVDSDLATIADRRLLRASRGYVFSLPVVLADREEAVSFLRDNDIALMVLDTDGDLGVKDLGDRADRMALVFGSEKGGPSGLFQEASAGTVSIPMLSSTESLNVSVSVGIALHERSARNFAVRRAAAQA
notes: nosiheptide resistance methyltransferase (NHR), Streptomyces actuosus; wild type; Homodimer when alone; in the heterodimer with Trx-NHR one chain of each construct; also called NHR(S); short, S; source: over expressed from pET-28a-NHR, purified (Ni-NTA, gel filtration); not shown: His6, N-terminal, kept
B2: thioredoxin tagged nosiheptide resistance methyltransferase (Trx-NHR) (enzyme, Streptomyces actuosus, UniProt P52391 1-274, looked up)
chain: B1 chain
notes: nosiheptide resistance methyltransferase (NHR), Streptomyces actuosus; wild type; Homodimer when alone; in the heterodimer with His-NHR one chain of each construct; Named Trx-His-NHR in the methods; also called Trx-His-NHR; NHR(L); source: over expressed from pET-32M-NHR, purified (Ni-NTA, gel filtration); not shown: thioredoxin, N-terminal, kept
B3: HA-His-NHR-R135A (enzyme, Streptomyces actuosus, UniProt P52391 1-274, looked up)
chain: B1 chain with R135A
notes: nosiheptide resistance methyltransferase (NHR), Streptomyces actuosus; Homodimer when alone; in the heterodimer with Flag-Trx-His-NHR one chain of each construct; also called HA-NHR-R135A; HA-R135A-NHR; source: site-directed mutagenesis of His-NHR, HA tag added by PCR; purified (Ni-NTA, gel filtration); not shown: His6, N-terminal, kept
B4: Flag-Trx-His-NHR (enzyme, Streptomyces actuosus, UniProt P52391 1-274, looked up)
chain: B1 chain
notes: nosiheptide resistance methyltransferase (NHR), Streptomyces actuosus; wild type; Homodimer when alone; in the heterodimer with HA-His-NHR-R135A one chain of each construct; also called Flag-NHR; Flag-Trx-NHR; source: Flag tag added to Trx-His-NHR by PCR; purified (Ni-NTA, gel filtration); not shown: thioredoxin, N-terminal, kept

Tests used:
[1] = biological target: the molecule itself; assay: native gel or EMSA; differently tagged (short and long) NHR proteins mixed at 4°C overnight, then incubated with 58 nt or 29 nt RNA (6-10 μM RNA, 2-10 μM protein) for 1 hour at 4°C in 25 mM Hepes-KOH, 25 mM NH4Cl, 5 mM MgCl2, 5 mM DTT, pH 8.0; 6% polyacrylamide native gel, SYBR Gold; dimers seen as RNA-protein complexes
HA-His-NHR-R135A = biological target: B3; assay: as above; settings: both partners purified

Binder | stoichiometry N [1] | binding result (HA-His-NHR-R135A)
B1 | 2 | 
B2 | 2 | 
B3 | 2 | 
B4 | 2 | binds

Reference: PMC4409310, “Substrate Recognition and Modification by the Nosiheptide Resistance Methyltransferase” (PLoS ONE, 2015)
